# Measured values published in patent US20140087995A1 (published 2014).
# Numbered stars: 1 amine (or outer) side, 2 acyl side, 3 side chain; on linkers, the order of the positions; unused ones are H or OH. Bridge positions count the residues as written; N and C are the ends. Side chains are listed from the residue outwards. Ends that are not written are not given here. * marks the point of attachment. C20 diacid = O=C(O)CCCCCCCCCCCCCCCCCCC(=O)*; γGlu = O=C(O)[C@H](CCC(=O)[*:2])N[*:1]
# T1: human calcitonin receptor (human, UniProt P30988 25-474)
# T1 sequence (looked up): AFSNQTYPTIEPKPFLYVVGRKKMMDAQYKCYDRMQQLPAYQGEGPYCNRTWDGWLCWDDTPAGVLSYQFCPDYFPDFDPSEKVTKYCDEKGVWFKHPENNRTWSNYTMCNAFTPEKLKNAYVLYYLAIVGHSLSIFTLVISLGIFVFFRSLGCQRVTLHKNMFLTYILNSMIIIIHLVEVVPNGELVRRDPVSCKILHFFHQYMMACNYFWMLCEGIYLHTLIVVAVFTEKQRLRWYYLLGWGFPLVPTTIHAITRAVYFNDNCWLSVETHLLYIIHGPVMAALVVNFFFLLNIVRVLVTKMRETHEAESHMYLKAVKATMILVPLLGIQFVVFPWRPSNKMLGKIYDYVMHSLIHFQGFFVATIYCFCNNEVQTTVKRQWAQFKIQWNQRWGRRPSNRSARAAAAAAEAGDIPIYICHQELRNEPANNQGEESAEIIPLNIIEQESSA
# B1: N^α1-[(4S)-4-carboxy-4-[[(4S)-4-carboxy-4-(19-carboxynonadecanoylamino)butanoyl]amino]butanoyl]-[Glu14,Arg17,Pro21,Pro27,Pro37]-h-amylin (peptide)
# peptide: {C20 diacid-γGlu-γGlu}-KCNTATCATQRLAEFLRHSSPNFGAIPSSTNVGSNTP-NH2
# modifications: disulfide 2-7
# SMILES: CC[C@H](C)[C@H](NC(=O)[C@H](C)NC(=O)CNC(=O)[C@H](Cc1ccccc1)NC(=O)[C@H](CC(N)=O)NC(=O)[C@@H]1CCCN1C(=O)[C@H](CO)NC(=O)[C@H](CO)NC(=O)[C@H](Cc1c[nH]cn1)NC(=O)[C@H](CCCNC(=N)N)NC(=O)[C@H](CC(C)C)NC(=O)[C@H](Cc1ccccc1)NC(=O)[C@H](CCC(=O)O)NC(=O)[C@H](C)NC(=O)[C@H](CC(C)C)NC(=O)[C@H](CCCNC(=N)N)NC(=O)[C@H](CCC(N)=O)NC(=O)[C@@H](NC(=O)[C@H](C)NC(=O)[C@@H]1CSSC[C@H](NC(=O)[C@H](CCCCN)NC(=O)CC[C@H](NC(=O)CC[C@H](NC(=O)CCCCCCCCCCCCCCCCCCC(=O)O)C(=O)O)C(=O)O)C(=O)N[C@@H](CC(N)=O)C(=O)N[C@@H]([C@@H](C)O)C(=O)N[C@@H](C)C(=O)N[C@@H]([C@@H](C)O)C(=O)N1)[C@@H](C)O)C(=O)N1CCC[C@H]1C(=O)N[C@@H](CO)C(=O)N[C@@H](CO)C(=O)N[C@H](C(=O)N[C@@H](CC(N)=O)C(=O)N[C@H](C(=O)NCC(=O)N[C@@H](CO)C(=O)N[C@@H](CC(N)=O)C(=O)N[C@H](C(=O)N1CCC[C@H]1C(N)=O)[C@@H](C)O)C(C)C)[C@@H](C)O
# notes: Synthetic acylated analogue of human amylin; also called compound 14
# B2: N^ε1-[(4S)-4-carboxy-4-(19-carboxynonadecanoylamino)butanoyl]-[Glu14,Arg17,Pro21,Pro27,Pro34,Pro37]-h-amylin (peptide)
# peptide: K([γGlu-C20 diacid])CNTATCATQRLAEFLRHSSPNFGAIPSSTNVGPNTP-NH2
# modifications: disulfide 2-7; N-terminus assumed
# SMILES: CC[C@H](C)[C@H](NC(=O)[C@H](C)NC(=O)CNC(=O)[C@H](Cc1ccccc1)NC(=O)[C@H](CC(N)=O)NC(=O)[C@@H]1CCCN1C(=O)[C@H](CO)NC(=O)[C@H](CO)NC(=O)[C@H](Cc1c[nH]cn1)NC(=O)[C@H](CCCNC(=N)N)NC(=O)[C@H](CC(C)C)NC(=O)[C@H](Cc1ccccc1)NC(=O)[C@H](CCC(=O)O)NC(=O)[C@H](C)NC(=O)[C@H](CC(C)C)NC(=O)[C@H](CCCNC(=N)N)NC(=O)[C@H](CCC(N)=O)NC(=O)[C@@H](NC(=O)[C@H](C)NC(=O)[C@@H]1CSSC[C@H](NC(=O)[C@@H](N)CCCCNC(=O)CC[C@H](NC(=O)CCCCCCCCCCCCCCCCCCC(=O)O)C(=O)O)C(=O)N[C@@H](CC(N)=O)C(=O)N[C@@H]([C@@H](C)O)C(=O)N[C@@H](C)C(=O)N[C@@H]([C@@H](C)O)C(=O)N1)[C@@H](C)O)C(=O)N1CCC[C@H]1C(=O)N[C@@H](CO)C(=O)N[C@@H](CO)C(=O)N[C@H](C(=O)N[C@@H](CC(N)=O)C(=O)N[C@H](C(=O)NCC(=O)N1CCC[C@H]1C(=O)N[C@@H](CC(N)=O)C(=O)N[C@H](C(=O)N1CCC[C@H]1C(N)=O)[C@@H](C)O)C(C)C)[C@@H](C)O
# notes: Synthetic acylated analogue of human amylin
# B3: N^ε1-[(4S)--4-carboxy-4-(19-carboxynonadecanoylamino)butanoyl]-[Glu14,Arg17,Pro21,Pro27,Pro37]-h-amylin (peptide)
# peptide: K([γGlu-C20 diacid])CNTATCATQRLAEFLRHSSPNFGAIPSSTNVGSNTP-NH2
# modifications: disulfide 2-7; N-terminus assumed
# SMILES: CC[C@H](C)[C@H](NC(=O)[C@H](C)NC(=O)CNC(=O)[C@H](Cc1ccccc1)NC(=O)[C@H](CC(N)=O)NC(=O)[C@@H]1CCCN1C(=O)[C@H](CO)NC(=O)[C@H](CO)NC(=O)[C@H](Cc1c[nH]cn1)NC(=O)[C@H](CCCNC(=N)N)NC(=O)[C@H](CC(C)C)NC(=O)[C@H](Cc1ccccc1)NC(=O)[C@H](CCC(=O)O)NC(=O)[C@H](C)NC(=O)[C@H](CC(C)C)NC(=O)[C@H](CCCNC(=N)N)NC(=O)[C@H](CCC(N)=O)NC(=O)[C@@H](NC(=O)[C@H](C)NC(=O)[C@@H]1CSSC[C@H](NC(=O)[C@@H](N)CCCCNC(=O)CC[C@H](NC(=O)CCCCCCCCCCCCCCCCCCC(=O)O)C(=O)O)C(=O)N[C@@H](CC(N)=O)C(=O)N[C@@H]([C@@H](C)O)C(=O)N[C@@H](C)C(=O)N[C@@H]([C@@H](C)O)C(=O)N1)[C@@H](C)O)C(=O)N1CCC[C@H]1C(=O)N[C@@H](CO)C(=O)N[C@@H](CO)C(=O)N[C@H](C(=O)N[C@@H](CC(N)=O)C(=O)N[C@H](C(=O)NCC(=O)N[C@@H](CO)C(=O)N[C@@H](CC(N)=O)C(=O)N[C@H](C(=O)N1CCC[C@H]1C(N)=O)[C@@H](C)O)C(C)C)[C@@H](C)O
# notes: Synthetic acylated analogue of human amylin; also called compound 12
# B4: N^ε1-[(4S)-4-carboxy-4-[[(4S)-4-carboxy-4-(19-carboxynonadecanoylamino)butanoyl]amino]butanoyl]-[Glu14,Arg17,Pro21,Pro27,Pro34,Glu35,Pro37]-h-amylin (peptide)
# peptide: K([γGlu-γGlu-C20 diacid])CNTATCATQRLAEFLRHSSPNFGAIPSSTNVGPETP-NH2
# modifications: disulfide 2-7; N-terminus assumed
# SMILES: CC[C@H](C)[C@H](NC(=O)[C@H](C)NC(=O)CNC(=O)[C@H](Cc1ccccc1)NC(=O)[C@H](CC(N)=O)NC(=O)[C@@H]1CCCN1C(=O)[C@H](CO)NC(=O)[C@H](CO)NC(=O)[C@H](Cc1c[nH]cn1)NC(=O)[C@H](CCCNC(=N)N)NC(=O)[C@H](CC(C)C)NC(=O)[C@H](Cc1ccccc1)NC(=O)[C@H](CCC(=O)O)NC(=O)[C@H](C)NC(=O)[C@H](CC(C)C)NC(=O)[C@H](CCCNC(=N)N)NC(=O)[C@H](CCC(N)=O)NC(=O)[C@@H](NC(=O)[C@H](C)NC(=O)[C@@H]1CSSC[C@H](NC(=O)[C@@H](N)CCCCNC(=O)CC[C@H](NC(=O)CC[C@H](NC(=O)CCCCCCCCCCCCCCCCCCC(=O)O)C(=O)O)C(=O)O)C(=O)N[C@@H](CC(N)=O)C(=O)N[C@@H]([C@@H](C)O)C(=O)N[C@@H](C)C(=O)N[C@@H]([C@@H](C)O)C(=O)N1)[C@@H](C)O)C(=O)N1CCC[C@H]1C(=O)N[C@@H](CO)C(=O)N[C@@H](CO)C(=O)N[C@H](C(=O)N[C@@H](CC(N)=O)C(=O)N[C@H](C(=O)NCC(=O)N1CCC[C@H]1C(=O)N[C@@H](CCC(=O)O)C(=O)N[C@H](C(=O)N1CCC[C@H]1C(N)=O)[C@@H](C)O)C(C)C)[C@@H](C)O
# notes: as for B2
# B5: N^ε1-[(4S)-4-carboxy-4-[[(4S)-4-carboxy-4-(19-carboxynonadecanoylamino)butanoyl]amino]butanoyl]-[Glu14,Arg17,Pro21,Pro27,Pro37]-h-amylin (peptide)
# peptide: K([γGlu-γGlu-C20 diacid])CNTATCATQRLAEFLRHSSPNFGAIPSSTNVGSNTP-NH2
# modifications: disulfide 2-7 (inferred)
# notes: Synthetic acylated analogue of human amylin; also called compound 13
# B6: N^ε1-[(4S)-4-carboxy-4-(19-carboxynonadecanoylamino)butanoyl]-[His14,Arg17,Pro21,Pro27,Pro34,Pro37]-h-amylin (peptide)
# peptide: K([γGlu-C20 diacid])CNTATCATQRLAHFLRHSSPNFGAIPSSTNVGPNTP-NH2
# modifications: disulfide 2-7; N-terminus assumed
# SMILES: CC[C@H](C)[C@H](NC(=O)[C@H](C)NC(=O)CNC(=O)[C@H](Cc1ccccc1)NC(=O)[C@H](CC(N)=O)NC(=O)[C@@H]1CCCN1C(=O)[C@H](CO)NC(=O)[C@H](CO)NC(=O)[C@H](Cc1c[nH]cn1)NC(=O)[C@H](CCCNC(=N)N)NC(=O)[C@H](CC(C)C)NC(=O)[C@H](Cc1ccccc1)NC(=O)[C@H](Cc1c[nH]cn1)NC(=O)[C@H](C)NC(=O)[C@H](CC(C)C)NC(=O)[C@H](CCCNC(=N)N)NC(=O)[C@H](CCC(N)=O)NC(=O)[C@@H](NC(=O)[C@H](C)NC(=O)[C@@H]1CSSC[C@H](NC(=O)[C@@H](N)CCCCNC(=O)CC[C@H](NC(=O)CCCCCCCCCCCCCCCCCCC(=O)O)C(=O)O)C(=O)N[C@@H](CC(N)=O)C(=O)N[C@@H]([C@@H](C)O)C(=O)N[C@@H](C)C(=O)N[C@@H]([C@@H](C)O)C(=O)N1)[C@@H](C)O)C(=O)N1CCC[C@H]1C(=O)N[C@@H](CO)C(=O)N[C@@H](CO)C(=O)N[C@H](C(=O)N[C@@H](CC(N)=O)C(=O)N[C@H](C(=O)NCC(=O)N1CCC[C@H]1C(=O)N[C@@H](CC(N)=O)C(=O)N[C@H](C(=O)N1CCC[C@H]1C(N)=O)[C@@H](C)O)C(C)C)[C@@H](C)O
# notes: as for B2
# Biological target: T1, human calcitonin receptor
# Assay: cell-based or functional assay
row,Binder,"hCTR funct. EC50 (CRE luciferase reporter, BHK cells) [nM]"
1,B1,0.238
2,B2,0.09
3,B3,0.185
4,B4,0.102
5,B5,0.47
6,B6,0.04
